Read-outs that look alike come from different tables or passages of the source.
Columns and labels:
[1] = tested on: interferon alpha pathway; assay: Peripheral blood gene set enrichment, day 15 vs. day 0; assay type: in vivo, human
Excerpt: (§1) In all patients (day 15 vs. day 0): interferon gamma pathway: ES=0.81, p<0.01 (combination, n=31) vs. ES=0.51, p=0.28 (nivolumab, n=14); interferon alpha pathway: ES=0.87, p<0.01 (combination, n=31) vs. ES=0.53, p=0.39 (nivolumab, n=14). In PD-L1 negative patients (day 15 vs. day 0): interferon gamma pathway: ES=0.82, p<0.01 (combination, n=21) vs. ES=0.55, p=0.15 (nivolumab, n=5); interferon alpha pathway: ES=0.88, p<0.01 (combination, n=21) vs. ES=0.53, p=0.35 (nivolumab, n=5).

[2] = tested on: interferon gamma pathway; assay: as above; assay type: in vivo, human
Excerpt: as §1

[3] = tested on: advanced urothelial carcinoma; assay: Phase 2 randomized study of eganelisib + nivolumab vs nivolumab: response, PFS, OS; assay type: in vivo, human; settings: for Median PFS: preliminary PFS
Excerpt: (§2) Methods: Eligible patients (pts) with mUC who progressed on >1 platinum-based chemotherapy regimen and were CPI naïve were enrolled. […] Pts were stratified by baseline circulating monocytic myeloid derived suppressor cells (mMDSC) level. The primary endpoint was objective response rate (ORR) per RECIST v1.1 in pts with high baseline mMDSC levels. Other endpoints included ORR, progression free survival (PFS) and overall survival (OS) in all pts, PD-L1+/−pts and pts with hepatic adverse events (AE).
Advanced platinum refractory 2nd line urothelial cancer patients: Inclusion/exclusion criteria per CheckMate-275; MDSC* all corners (stratified); PD-L1** status all corners (non-stratified). • * Circulating mMDSC levels measured in baseline peripheral blood samples based on a Clinical Laboratory Improvement Amendments (CLIA)-certified flow cytometry assay (low [<22.3%] or high [≥22.3%] or ≥/<the median MDSC level of patients in this trial) • ** PD-L1 expression measured in baseline/archival tumor biopsies with Dako PD-L1 immunohistochemical 28-8 pharmDx kit approved for nivolumab in UC, except 2 biopsies tested with 22C3 PD-L1 antibody prior to study (Tumor Proportion Score≥1% cutoff for PD-L1 (+)) • Primary objective: ORR in MDSC High • Secondary objectives: ORR, TTR, DOR, and PFS in total population+MDSC subsets; safety; PK • Exploratory objectives: safety and efficacy in biomarker subsets, including PD-L1; OS
(§3) The dose for nivolumab is 480 mg Q4W.

[4] = tested on: metastatic urothelial carcinoma (mUC); settings: CheckMate-275, cited from earlier work
[5] = Phase 2 urothelial carcinoma study: adverse events; assay type: in vivo, human
Excerpt: as §2, §3

[6] = PD-L1 negative patients, n=21 vs n=5
[7] = snapshot Jun. 26, 2021, PD-L1 negative patients
[8] = snapshot Jun. 26, 2021, all patients
[9] = preliminary analysis, N=33 vs N=16
[10] = preliminary analysis, N=33 vs N=16, 1 Grade 4
[11] = snapshot Jun. 26, 2021, N=33 vs N=16

Substance: nivolumab
- gene set Enrichment Score (ES), interferon alpha pathway [1, 6]: 0.53
- gene set Enrichment Score (ES), interferon alpha pathway ([1]; all patients, n=31 vs n=14): 0.53
- gene set Enrichment Score (ES), interferon gamma pathway [2, 6]: 0.55
- gene set Enrichment Score (ES), interferon gamma pathway ([2]; all patients, n=31 vs n=14): 0.51
- overall survival probability at one year landmark [3, 7]: 17%
- overall survival probability at one year landmark [3, 8]: 32%
- Median OS (95% CI) ([4]; All (n = 270)): 8.6 (6.1-11.3) mo.
- Median PFS (95% CI) ([4]; All (n = 270)): 1.9 (1.9, 2.3) mo.
- ORR (95% CI) ([4]; All (n = 270)): 20 (16-26) %
- Median OS (95% CI) ([4]; PD-L1 < 1% (n = 146)): 6.0 (4.4-8.1) mo.
- Median PFS (95% CI) ([4]; PD-L1 < 1% (n = 146)): 1.9 (1.7, 2.0) mo.
- ORR (95% CI) ([4]; PD-L1 < 1% (n = 146)): 16 (10-23) %
- Median OS (95% CI) ([4]; PD-L1 ≥ 1% (n = 124)): 11.9 (9.1-19.1) mo.
- Median PFS (95% CI) ([4]; PD-L1 ≥ 1% (n = 124)): 3.5 (1.9, 3.7) mo.
- ORR (95% CI) ([4]; PD-L1 ≥ 1% (n = 124)): 26 (18-34) %

Substance: Nivolumab + Placebo: placebo with nivolumab (PN), active control arm
- asthenia, all-Gr AE ([5]; first 49 pts (33 EN, 16 PN)): 31%
- hepatotoxicity, Gr≥3 AE ([5]; first 49 pts (33 EN, 16 PN)): 0%
- pruritis, all-Gr AE ([5]; first 49 pts (33 EN, 16 PN)): 6%
- pyrexia, all-Gr AE ([5]; first 49 pts (33 EN, 16 PN)): 0%
- rash, Gr≥3 AE ([5]; first 49 pts (33 EN, 16 PN)): 0%
- rash, all-Gr AE ([5]; first 49 pts (33 EN, 16 PN)): 6%
- transaminase elevation, Gr≥3 AE ([5]; first 49 pts (33 EN, 16 PN)): 6%
- transaminase elevation, all-Gr AE ([5]; first 49 pts (33 EN, 16 PN)): 6%
- Aspartate aminotransferase increased, Grade≥3 TEAE, Related to Eganelisib (Placebo in control arm) [5, 9]: 0 n (%)
- Aspartate aminotransferase increased, Grade≥3 TEAE, Related to Nivolumab [5, 9]: 0 n (%)
- Asthenia, TEAE, All Causality [5, 9]: 4 (25.0) n (%)
- Asthenia, TEAE, Related to Eganelisib (Placebo in control arm) [5, 9]: 2 (12.5) n (%)
- Asthenia, TEAE, Related to Nivolumab [5, 9]: 1 (6.3) n (%)
- Decreased appetite, TEAE, All Causality [5, 9]: 4 (25.0) n (%)
- Decreased appetite, TEAE, Related to Eganelisib (Placebo in control arm) [5, 9]: 1 (6.3) n (%)
- Decreased appetite, TEAE, Related to Nivolumab [5, 9]: 0 n (%)
- Disease progression, Grade≥3 TEAE, All Causality [5, 9]: 6 (37.5) n (%)
- Disease progression, Grade≥3 TEAE, Related to Eganelisib (Placebo in control arm) [5, 9]: 0 n (%)
- Disease progression, Grade≥3 TEAE, Related to Nivolumab [5, 9]: 0 n (%)
- Disease progression, TEAE, All Causality [5, 9]: 6 (37.5) n (%)
- Disease progression, TEAE, Related to Eganelisib (Placebo in control arm) [5, 9]: 0 n (%)
- Disease progression, TEAE, Related to Nivolumab [5, 9]: 0 n (%)
- Hepatotoxicity, Grade≥3 TEAE, Related to Eganelisib (Placebo in control arm) [5, 9]: 0 n (%)
- Hepatotoxicity, Grade≥3 TEAE, Related to Nivolumab [5, 9]: 0 n (%)
- Pruritus, TEAE, All Causality [5, 9]: 1 (6.3) n (%)
- Pruritus, TEAE, Related to Eganelisib (Placebo in control arm) [5, 9]: 0 n (%)
- Pruritus, TEAE, Related to Nivolumab [5, 9]: 0 n (%)
- Pyrexia, TEAE, All Causality [5, 9]: 0 n (%)
- Pyrexia, TEAE, Related to Eganelisib (Placebo in control arm) [5, 9]: 0 n (%)
- Pyrexia, TEAE, Related to Nivolumab [5, 9]: 0 n (%)
- Rash, TEAE, All Causality [5, 9]: 1 (6.3) n (%)
- Rash, TEAE, Related to Eganelisib (Placebo in control arm) [5, 9]: 0 n (%)
- Rash, TEAE, Related to Nivolumab [5, 9]: 0 n (%)
- Aspartate aminotransferase increased, Grade≥3 TEAE, All Causality [5, 10]: 1 (6.3) n (%)
- Hepatotoxicity, Grade≥3 TEAE, All Causality [5, 10]: 0 n (%)
- Anemia, Grade≥3 TEAE, All Causality [5, 11]: 1 (6.3) n (%)
- Anemia, Grade≥3 TEAE, Related to Eganelisib (Placebo in control arm) [5, 11]: 0 n (%)
- Anemia, Grade≥3 TEAE, Related to Nivolumab [5, 11]: 0 n (%)
- Aspartate aminotransferase increased, Grade≥3 TEAE, All Causality [5, 11]: 1 (6.3) n (%)
- Aspartate aminotransferase increased, Grade≥3 TEAE, Related to Eganelisib (Placebo in control arm) [5, 11]: 1 (6.3) n (%)
- Aspartate aminotransferase increased, Grade≥3 TEAE, Related to Nivolumab [5, 11]: 1 (6.3) n (%)
- Asthenia, TEAE, All Causality [5, 11]: 5 (31.3) n (%)
- Asthenia, TEAE, Related to Eganelisib (Placebo in control arm) [5, 11]: 2 (12.5) n (%)
- Asthenia, TEAE, Related to Nivolumab [5, 11]: 1 (6.3) n (%)
- Decreased appetite, TEAE, All Causality [5, 11]: 5 (31.3) n (%)
- Decreased appetite, TEAE, Related to Eganelisib (Placebo in control arm) [5, 11]: 1 (6.3) n (%)
- Decreased appetite, TEAE, Related to Nivolumab [5, 11]: 0 n (%)
- Disease progression, Grade≥3 TEAE, All Causality [5, 11]: 4 (25.0) n (%)
- Disease progression, Grade≥3 TEAE, Related to Eganelisib (Placebo in control arm) [5, 11]: 0 n (%)
- Disease progression, Grade≥3 TEAE, Related to Nivolumab [5, 11]: 0 n (%)
- Disease progression, TEAE, All Causality [5, 11]: 4 (25.0) n (%)
- Disease progression, TEAE, Related to Eganelisib (Placebo in control arm) [5, 11]: 0 n (%)
- Disease progression, TEAE, Related to Nivolumab [5, 11]: 0 n (%)
- Hepatotoxicity, Grade≥3 TEAE, All Causality [5, 11]: 0 n (%)
- Hepatotoxicity, Grade≥3 TEAE, Related to Eganelisib (Placebo in control arm) [5, 11]: 0 n (%)
- Hepatotoxicity, Grade≥3 TEAE, Related to Nivolumab [5, 11]: 0 n (%)
- Pruritus, TEAE, All Causality [5, 11]: 1 (6.3) n (%)
- Pruritus, TEAE, Related to Eganelisib (Placebo in control arm) [5, 11]: 0 n (%)
- Pruritus, TEAE, Related to Nivolumab [5, 11]: 0 n (%)
- Pyrexia, TEAE, All Causality [5, 11]: 0 n (%)
- Pyrexia, TEAE, Related to Eganelisib (Placebo in control arm) [5, 11]: 0 n (%)
- Pyrexia, TEAE, Related to Nivolumab [5, 11]: 0 n (%)
- Rash, TEAE, All Causality [5, 11]: 1 (6.3) n (%)
- Rash, TEAE, Related to Eganelisib (Placebo in control arm) [5, 11]: 0 n (%)
- Rash, TEAE, Related to Nivolumab [5, 11]: 0 n (%)
- Discontinued treatment: Adverse event, unrelated to treatment ([5]; snapshot Jun. 26, 2021, of discontinued patients): 0 n
- patients with reduction of tumor burden ([3]; PD-L1(−) patients, best change of target lesion): 17%
- Median PFS ([3]; ITT): 8.5 wks
- Median PFS ([3]; PD-L1(+)): 16.4 wks
- Median PFS ([3]; PD-L1(−)): 7.9 wks
- patients for whom durability of OS benefit continued to mature ([3]; snapshot Jun. 26, 2021): 18%
- median OS (mOS) [3, 7]: 7.9 months
- median OS (mOS) [3, 8]: 7.9 months
